IntAct's records for PubMed 21293379

Target: nsd2_human NSD2 (UniProt O96028)
UniProt O96028, sequence (O96028 whole entry): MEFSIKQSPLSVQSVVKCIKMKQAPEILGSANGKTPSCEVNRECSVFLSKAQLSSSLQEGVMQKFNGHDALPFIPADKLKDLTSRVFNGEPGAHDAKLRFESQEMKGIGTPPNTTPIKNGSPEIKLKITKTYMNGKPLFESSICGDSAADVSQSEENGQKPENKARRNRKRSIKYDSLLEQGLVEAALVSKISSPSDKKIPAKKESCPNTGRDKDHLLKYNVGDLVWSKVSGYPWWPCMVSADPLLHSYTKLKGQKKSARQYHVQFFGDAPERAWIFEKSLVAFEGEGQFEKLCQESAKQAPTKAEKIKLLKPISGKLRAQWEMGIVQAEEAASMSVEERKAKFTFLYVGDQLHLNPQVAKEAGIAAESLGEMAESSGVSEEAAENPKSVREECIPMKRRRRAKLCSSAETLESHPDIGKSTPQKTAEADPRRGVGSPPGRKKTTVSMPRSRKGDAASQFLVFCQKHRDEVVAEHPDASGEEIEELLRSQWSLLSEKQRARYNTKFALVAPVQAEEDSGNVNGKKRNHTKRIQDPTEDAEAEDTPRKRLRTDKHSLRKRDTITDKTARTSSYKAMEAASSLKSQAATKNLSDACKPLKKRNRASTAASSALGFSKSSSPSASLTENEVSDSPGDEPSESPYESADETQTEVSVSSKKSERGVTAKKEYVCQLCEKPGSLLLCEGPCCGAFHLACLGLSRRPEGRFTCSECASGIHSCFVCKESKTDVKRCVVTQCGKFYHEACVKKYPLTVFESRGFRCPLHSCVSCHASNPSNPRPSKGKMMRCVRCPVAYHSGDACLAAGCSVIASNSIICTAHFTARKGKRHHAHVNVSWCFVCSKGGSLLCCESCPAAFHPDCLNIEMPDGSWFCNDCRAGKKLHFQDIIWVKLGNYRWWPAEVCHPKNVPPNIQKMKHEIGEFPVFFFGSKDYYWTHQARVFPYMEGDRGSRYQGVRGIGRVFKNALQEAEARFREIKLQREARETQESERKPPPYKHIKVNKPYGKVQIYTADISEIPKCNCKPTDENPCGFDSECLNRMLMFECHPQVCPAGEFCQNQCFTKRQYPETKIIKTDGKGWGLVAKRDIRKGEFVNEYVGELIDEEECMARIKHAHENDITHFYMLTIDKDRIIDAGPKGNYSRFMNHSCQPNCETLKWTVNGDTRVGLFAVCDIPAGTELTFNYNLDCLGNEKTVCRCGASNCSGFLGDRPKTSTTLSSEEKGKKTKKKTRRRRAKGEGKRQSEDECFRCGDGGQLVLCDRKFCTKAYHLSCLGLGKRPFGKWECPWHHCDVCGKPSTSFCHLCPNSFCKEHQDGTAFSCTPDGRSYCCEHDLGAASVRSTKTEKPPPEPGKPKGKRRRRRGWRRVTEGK

effect of a mutation on the interaction: disrupting interaction
Substance: Mediator of DNA damage checkpoint protein 1 (Homo sapiens), Q14676 K1936M
